Test results as given in the RNAGym collection of RNA variant scans (doi:10.1073/pnas.2313332121).

B1: TPR t1 (parent)
chain: GACCAAUCUGCCCUCAGAGCUCGAGAACAUCUUCGGAUGCAGAGGAGGCAGGCUUCGGUGGCGCGAUAGCGCCAACGUCCUCAACCUCCAAUGCAUCCCACCACAUGAUGAUGCCUGAAGAGCCUUGGUUUUUUG

Variants of: B1
Test: polymerase ribozyme fitness, log enrichment relative to wild type (log ratio); higher = more active; in vitro selection for triplet polymerase activity
Summary of the method: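 Mutant libraries were PCR-built and transcribed for each subunit of a heterodimeric triplet polymerase ribozyme and selected for one round in triplicate at −7 °C, frozen, before gel excision of extended constructs and streptavidin-bead capture. Input and output libraries were Illumina-sequenced, keeping genotypes with ≥10 input reads and ≥1 read per output. Fitness is a logarithmic ratio of genotype to wild-type enrichment, in base 2, using inverse-variance-weighted replicate averages.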

Variant	polymerase ribozyme fitness (log ratio)
C20G U125G	-4.91
C20U A26G G71U U109A	-5.57
C20U A41C C72A C101G	-3.66
C20U A41C U116C	-4.23
C20U A43C C82U C98U	-4.43
C20U A43G C53A G110U G120U	-6.4
C20U A43G G63A	-4.59
C20U A43U C114G C123A	-2.41
C20U A46C G69C C101U	-4.11
C20U A50G	-1.33
C20U A83G C102A	-5.64
C20U A100U	-2
C20U A100U G120U	-1.89
C20U A105U	-3.87
C20U C22A	-3.94
C20U C28G G45A G52U G69U C114U	-5.61
C20U C34U	-5.22
C20U C40A G44C C49G G71A C115A A119G	-4.83
C20U C40A G63U C123U	-3.75
C20U C40G G63C	-4.09
C20U C53A G71A A91G	-5.09
C20U C53U U54A U125G	-2.55
C20U C56A	-1.52
C20U C56A G71U A118U G120U	-2.27

Variant	polymerase ribozyme fitness (log ratio)
C20U C70U	-1.7
C20U C70U A95G	-1.86
C20U C72A A119U	-1.58
C20U C72U C98A	-5.82
C20U C73A U81A U96A A121U C124U U134A G135U	-0.843
C20U C97G	-5.61
C20U C114U	-1.66
C20U C124U	-0.364
C20U G39A C56A G69U C94G	-1.55
C20U G42A A91C	-4.6
C20U G42A C124G U126C G135U	-1.98
C20U G42C	-2.14
C20U G42C C88G U112A G117A	-6
C20U G44U G93A	-3.1
C20U G48C U54G A74C	-3.11
C20U G52A G60A	-2.6
C20U G52C	-2.19
C20U G52C C72U	-2.41
C20U G57A	-1.75
C20U G57A G58C	-2.72
C20U G57A U78C	-3.25
C20U G58A C73A G93C G117U	-5.31
C20U G60A C124U	0.188
C20U G60A G61A C99U	-5.32

Variant	polymerase ribozyme fitness (log ratio)
C20U G60A G107C G120C	-5.52
C20U G61C C114U	-1.73
C20U G63U	-2.43
C20U G69A	-3.34
C20U G69U G120C	-0.787
C20U G71C A75G C82U U87G A90U A105G G113U	-3.34
C20U G77A	-1.35
C20U G77A U87A G110A	-4.79
C20U G135U	-1.97
C20U U32C G71A U112C	-1.25
C20U U33G U59A G107U G110C	-6.84
C20U U38G C62G G120C	-4.8
C20U U54A C73G U133A	-1.99
C20U U55G	-1.39
C20U U96A	-2.25
C20U U106C	-2.1
C20U U112G	-1.11
C20U U132C	-1.93
U21A	-0.29
U21A A27C A46G C76G	-2.54
U21A A27C A68G C94A	-6.24
U21A A27G G51U U116C	-7.29
U21A A29G	-1.38
U21A A37C A46U G77A C89U U131C	-5.66

Variant	polymerase ribozyme fitness (log ratio)
U21A A43C	-2.9
U21A A43C C73G U78C	-3.93
U21A A43U C73U A90G	-2.19
U21A A43U G61A C73U A90G	-3.13
U21A A46G G128C G135C	-0.459
U21A A50U C73U C76G C89A	-4.66
U21A C28G G57A U59G C124U U130A	-3.45
U21A C31U U78G C101G U106A G113C	-4.88
U21A C49A C56A A121U	0.0625
U21A C49A G63U	-2.05
U21A C49G G61U U130C	-0.83
U21A C49G U92C C104U	-2.2
U21A C53G U54G U87A U133A	-3.43
U21A C56G U78A C85A U109G	-4.63
U21A C62U	-0.421
U21A C62U A119U	-0.733
U21A C72A	-0.312
U21A C86G	-0.987
U21A C88A G110A	-4.92
U21A C89U	-0.222
U21A G39C G77A	-1.28
U21A G42A A46U G60A G120A	-2.58
U21A G44A	-1.07
U21A G45U	-1.28

Variant	polymerase ribozyme fitness (log ratio)
U21A G45U C101U U106C	-4.17
U21A G60A A74U A100U U125G U132A	-0.987
U21A G61A U96C	-0.247
U21A G63A	-1.05
U21A G63A C88A A91C	-5.41
U21A G128C	-2.29
U21A U33G G42C A43U G63U G117A	-6.65
U21A U59A C62A	-3.07
U21A U59G U81G C82G C115U	-4.27
U21A U92C U116C A119G	0.265
U21C	-0.0619
U21C A27U C123U	-4.79
U21C A37U	0.0886
U21C A111C	0.739
U21C C28A G63A U92G C124A G127A	-7.31
U21C C56A C70U C82A	-2.18
U21C C56U A84C C98A	-4.77
U21C C62U A84C	-0.909
U21C C64A C99G U112G	-8.45
U21C C89A	-1.81
U21C G39C C56A	-1.44
U21C G42A C88U C89A	-3.87
U21C G44A A119G U125G	-1.38
U21C G45C C56U G69A U109A A111U C124G	-8.04

Variant	polymerase ribozyme fitness (log ratio)
U21C G48C A90U G117C G127C	-5.55
U21C G60U G110A	-3.6
U21C G61A C114U U125A	-1.45
U21C G63A	-0.609
U21C G69U C88U C94G C124U	-1.5
U21C G71U C86G G117A	-5.6
U21C G110U G113U	-4.79
U21C U38A C73A C123A	-1.55
U21C U55C G63U A105U	-4.84
U21C U112A G122C C123U	-0.556
U21G	-0.965
U21G A27U G60U C80A C123G	-6.74
U21G A50U	-2.82
U21G A50U G69A A108G G110A U112G	-6.33
U21G A119G	-0.142
U21G C22A A27U	-4.41
U21G C22U U92G C104A U109A	-5.96
U21G C62G C101U	-5
U21G C64U C72U C73G	-3.77
U21G C72A	-0.561
U21G C73G A83G	-3.58
U21G C88G U96A C102U	-5.77
U21G C94U	-1.8
U21G C102A	-2.91

Variant	polymerase ribozyme fitness (log ratio)
U21G C123G	0.364
U21G G36C C72G	-2.78
U21G G42U U112A	0.673
U21G G45U U92G	-5.73
U21G G93U A111G U112G	-2.45
U21G U38C	-2.11
U21G U54C C56A G57C	-1.15
C22A A29G A50G U116G U129C	-5.9
C22A A29G C40G G61U C72A A83U U131A	-5.02
C22A A43G A46U C72U G113C U116G	-6.81
C22A A46C	-5.4
C22A A74U C123A U125G	-5.38
C22A A75U U78A U116G	-4.77
C22A A83G	-5.4
C22A A91G	-4.94
C22A A95U	-4.83
C22A C31G A50C C70G A111C	-7.1
C22A C40A G69A C86U C97G C99G U125A	-6.51
C22A C49U C56A U78C G117U	-5.8
C22A C53U G113U	-4.93
C22A C72A C73A	-5.32
C22A C73G C82A G120U U125C	-5.37
C22A C82A C89A A111G	-6.04
